Here are results for one protein from publication PMC12409439 (The Journal of Biological Chemistry, 2025).

This data set deals with the molecule itself. Kind of data set: cryo-EM structure; Dmc1 (2.5 uM) with 0.125 uM 96-mer ssDNA in HR buffer with 1.5 mM CaCl2 and 5 mM ADP, 30 °C, 5 min, then 8 mM CHAPSO; interdigitated filaments deconvolved into single filaments; filament formation required the ssDNA.

B1: Saccharomyces cerevisiae Dmc1 (natural protein, S. cerevisiae)
chain: MSVTGTEIDSDTAKNILSVDELQNYGINASDLQKLKSGGIYTVNTVLSTTRRHLCKIKGLSEVKVEKIKEAAGKIIQVGFIPATVQLDIRQRVYSLSTGSKQLDSILGGGIMTMSITEVFGEFRCGKTQMSHTLCVTTQLPREMGGGEGKVAYIDTEGTFRPERIKQIAEGYELDPESCLANVSYARALNSEHQMELVEQLGEELSSGDYRLIVVDSIMANFRVDYCGRGELSERQQKLNQHLFKLNRLAEEFNVAVFLTNQVQSDPGASALFASADGRKPIGGHVLAHASATRILLRKGRGDERVAKLQDSPDMPEKECVYVIGEKGITDSSD
notes: Dmc1, S. cerevisiae, expressed from a plasmid encoding 6XHisDmc1; Stood as a helical filament assembled with a 96-mer ssDNA, ADP, Mg2+ and Ca2+; six protomers were modelled; No removal of the His tag is described; The N-terminal end of the tag is read from the printed name 6XHisDmc1; also called Dmc1-ADP; source: E. coli BL21 (DE3) Rosetta2, purified (Talon resin, heparin sepharose)
For the protein B1, the binding result is “binds”.
